As a reminder, the EC50 (read off the curve) is the concentration needed to bring the measured effect to its halfway point. By Kd is commonly meant the constant that tells how readily two partners part at equilibrium.

Consider one molecule from patent US20260070976A1 (Alector, published 2026).

In test [1] the target is T1, cell surface PILRA on human monocytes (human, UniProt Q9UKJ1 20-303).
T1 construct: Native PILRA on CD14+ monocytes of healthy donors; also called human PILRA; hu mono
Briefly: flow cytometry; Alexa Fluor 647-conjugated antibody on human CD14+ monocytes, Fc receptors blocked, 30 min on ice. As to the method: Anti-human PILRA antibodies X0 (PA-29) and its affinity matured variants were tested for their abilities to bind cell surface PILRA on human and cynomolgus monocytes. CD14+ monocytes were isolated from healthy human donors using a RosetteSep Human Monocyte Enrichment Cocktail kit (StemCell). Cynomolgus white blood cells were collected from cynomolgus whole blood. In both human and cynomolgus samples, the Fc receptor on the tested monocytes was blocked and the monocytes were treated with Alexa Fluor 647-conjugated PILRA antibodies for 30 minutes on ice. A dose response curve of antibodies X0 (PA-29), X1, X2, X7, X11, X12, X13, X14, X16, X18, and X20 was tested for binding to cell surface PILRA in human and cynomolgus monocytes, and antibodies bound to PILRA in a dose response manner. In another sample of human donor monocytes, a dose response curve of antibodies X0 (PA-29), X1, X2, X11, X13, X18, X29 (PA-43), and X34 (A6) was tested for binding to cell surface PILRA in human and cynomolgus monocytes, and antibodies bound to PILRA in a dose response manner.

Test [2] addresses T1, cell surface PILRA on human monocytes. Briefly: cell-based or functional assay.
The target in test [3] is T2, human PILRA G78 on HEK293F cells (human, UniProt Q9UKJ1 20-303).
T2 construct: also called hA; G78 OE
T2 sequence (Q9UKJ1 20-303 R78G): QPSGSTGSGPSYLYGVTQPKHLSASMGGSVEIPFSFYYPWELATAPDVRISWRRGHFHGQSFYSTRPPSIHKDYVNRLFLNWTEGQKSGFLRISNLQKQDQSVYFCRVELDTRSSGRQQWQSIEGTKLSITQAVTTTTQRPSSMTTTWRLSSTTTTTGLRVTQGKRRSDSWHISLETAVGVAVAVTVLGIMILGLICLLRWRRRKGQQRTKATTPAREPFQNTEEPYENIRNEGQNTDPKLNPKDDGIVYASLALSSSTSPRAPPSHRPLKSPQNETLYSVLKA
Briefly: flow cytometry; HEK293F cells overexpressing human PILRA, goat anti-human IgG Alexa Fluor 647. The procedure:
Conditioned media samples containing the tested anti-PILRA antibodies were assessed for binding to HEK293F cells overexpressing human PILRA (hA), human PILRB (hB), and cynomolgus PILRA (cA) by FACS. The conditioned media containing the tested antibodies were incubated with the cells for 30 min at 4° C., washed twice, and then detected with goat anti-human IgG secondary antibody (Alexa Fluor 647) at 1:1000 dilution. The cells were analyzed by flow cytometry on FACS Canto II, and for all cell lines, the reported MFI values were calculated for each conditioned media. These antibodies were evaluated for nonspecific binding using a baculovirus particle (BVP) assay (Jain T., Sun T., Durand S., Hall A., Houston N. R., Nett J. H., Sharkey B., Bobrowicz B., Caffry L, Yu Y., et al. Biophysical properties of the clinical-stage antibody landscape. Proc. Natl. Acad. Sci. USA. 2017; 114:944-949. Doi: 10.1073/pnas.1616408114.). The BVP scores are listed in Table 9, and the higher the score the more nonspecific binding that occurred.
(In general: A flow cytometer gives signals particle by particle.)

Test [4] addresses T3, human PILRB on HEK293F cells (human, UniProt Q9UKJ0 20-227).
T3 construct: also called hB
In words: hB Kd of Table 9; method not stated (Example 8: HEK293F overexpressing cells, FACS).

The target of test [5] is T4, recombinant cynomolgus PILRA (SEQ ID NO:120) (cynomolgus monkey).
T4 construct: also called cyno PILRA
T4 sequence (chain, as listed by the source limits assumed): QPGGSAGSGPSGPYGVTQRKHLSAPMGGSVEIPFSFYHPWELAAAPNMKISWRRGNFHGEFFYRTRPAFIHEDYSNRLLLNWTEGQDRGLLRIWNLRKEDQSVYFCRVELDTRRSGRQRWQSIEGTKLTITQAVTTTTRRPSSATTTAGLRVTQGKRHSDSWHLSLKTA
Briefly: SPR, Carterra LSA, antibody amine-coupled, kinetic fit. (Surface plasmon resonance follows binding to a sensor surface in real time, without labels.)

The target in another test is recombinant human PILRA (human, UniProt Q9UKJ1 20-197). Described as above.
recombinant human PILRA, sequence (Q9UKJ1 20-197 limits assumed): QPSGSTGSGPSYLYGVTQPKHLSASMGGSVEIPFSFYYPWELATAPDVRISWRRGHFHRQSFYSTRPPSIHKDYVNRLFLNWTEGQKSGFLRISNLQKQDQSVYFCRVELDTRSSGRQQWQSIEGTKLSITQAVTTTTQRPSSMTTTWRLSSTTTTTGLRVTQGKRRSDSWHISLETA
Test [6] concerns the target T2, human PILRA G78 on HEK293F cells. Briefly: flow cytometry blocking assay; antibody on HEK293F cells overexpressing human PILRA G78, then 5 ug/mL NPDC1 Fc as the blocked ligand; cell-bound NPDC1 Fc read as MFI. As to the method:
A dose response curve of antibodies X0 (PA-29), X1, X2, X7, X11, X12, X13, X14, X16, X18, and X20 was assessed for modulating the binding of Neural Proliferation Differentiation and Control Protein 1 (NPDC1) Fc to 293 cells ectopically expressing human PILRA (HEK293F human PILRA G78 overexpressing cells). Conditioned media samples containing antibodies were incubated with human PILRA overexpressing cells for 30 minutes at 4° C., and then 5 μg/mL NPDC1 Fc was added to this mixture. After 30 minutes of incubation at 4° C., the cells were washed and cell-bound NPDC1 Fc was detected with anti-human IgG Alexa Fluor 647. The cells were analyzed by flow cytometry on FACS Canto II with the percentage of NPDC1 Fc binding in the presence of conditioned media relative to NPDC1 Fc binding alone was calculated. […] All tested antibodies decreased binding of NPDC1 to human PILRA.

Test [7] shares this target. Briefly: FACS on HEK293F cells, binding on human PILRA (hA) over human PILRB (hB).

T1 sequence (Q9UKJ1 20-303): as the sequence (Q9UKJ1 20-303 R78G) above, with G59R counted along it
T3 sequence (Q9UKJ0 20-227): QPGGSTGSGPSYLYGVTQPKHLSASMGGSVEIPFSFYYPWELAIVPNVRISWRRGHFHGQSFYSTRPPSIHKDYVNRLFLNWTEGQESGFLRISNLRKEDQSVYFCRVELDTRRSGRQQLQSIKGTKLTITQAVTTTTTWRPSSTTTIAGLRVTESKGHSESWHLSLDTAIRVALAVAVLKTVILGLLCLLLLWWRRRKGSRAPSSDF

B1: X13 (antibody, human IgG4, V domains shown)
VH: QVQLVQSGAEVKKPGSSVKVSCKASGYNFLHYDVNWVRQAPGQGLEWMGGIIPIFGTANYAQKFQGRVTITADESTSTAYMELSSLRSEDTAVYYCATAVGAGWFDPWGQGTLVTVSS
VL: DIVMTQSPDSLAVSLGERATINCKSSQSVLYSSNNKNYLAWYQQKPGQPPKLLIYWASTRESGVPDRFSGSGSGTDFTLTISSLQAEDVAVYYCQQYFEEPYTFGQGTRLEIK
notes: conditioned media in the HEK293F assays
Turning to B1, the “EC50 (read off the curve)” value in test [1] was around 0.2 µg/mL; in test [3], around 0.3 µg/mL. Besides, in test [2], the “Hu Mono DR EC50” value was around 0.0004 µg/mL. Further, the results for the Kd (in test [4]; in test [5]; in the test with recombinant human PILRA) were 51.5 nM, 0.3 nM and 1.1 nM, respectively. Further, the “IC50 (read off the curve)” value in test [6] was around 0.08 µg/mL. Also, the “hA/hB binding ratio on HEK293F” value in test [7] worked out at 20.3.
